We go through one molecule from patent US20250145926A1, “DEVICES, METHODS, AND SYSTEMS FOR ASSESSING CELL MIGRATION AND RELATED PROCESSES” (University of Washington, priority 2023, published 2025).

This data set has as its system differentiated HL-60 neutrophils. Put plainly: vE/D ratio and ectodomain charge estimation, under-agarose cells immobilized with Latrunculin A in an electric field. It is filed as cell-based, human. Conditions: averaged across all electric field conditions; ± SEM. On the procedure: Experimental Setup. Cells were resuspended to a concentration of 2×10^6 cells/ml in L-15 Medium with 10% hiFBS. With an ibiTreat μ-Slide-I (Ibidi, #80106) placed on a 37° C. heat block, 100 μL of cells were added to the channel and incubated for 5 minutes to allow them to sediment and loosely adhere to the bottom coverslip. Warm, liquid 2.5% UltraPure low melting point agarose (Invitrogen of Waltham, MA, #16520-050) in L-15 with 10% hiFBS was added to one channel reservoir and then centrifuged at 28-37° C. for 5 min at 700 g. This was performed in a custom 3D-printed swinging bucket rotor plate adaptor (design available upon request). Immediately after centrifugation, the slide was incubated on a 20° C. cooling plate (STIR-KOOL, Ladd Research of Essex Junction, VT; #SK-12D-AW) for 5 minutes to gel. […] L-15 media with 10% hiFBS was added to both reservoirs. […]
Quantification of vE/D Ratio and Estimation of Charge. […] Under the imaging conditions (800 nm axial resolution), the measured fluorescence intensities will reflect fluorescence predominantly at this surface, and the biological system is treated as a flat two-dimensional surface. […]

B1: Galvanin: single-pass transmembrane protein (161 amino acids, UniProt ID: Q6P9G4), electric field sensor (protein)
chain: NYEELENSGDTTVESERPNKVTIPSTFAAVTIKETLNANINSTNFAPDENQLEFILMVLIPLILLVLLLLSVVFLATYYKRKRTKQEPSSQGSQSALQTYELGSENVKVPIFEEDTPSVMEIEMEELDKWMNSMNRNADFECLPTLKEEKESNHNPSDSES
In the case of B1, the “net charge estimated from vE/D” value is reported as −18 e.
